The record followed here is patent US20250134988A1.

This assay concerns the target CoV2_5P_FPKO1 (SARS-CoV-2) (UniProt P0DTC2). Kind of assay: ELISA. In general terms: ELISA stands for enzyme-linked immunosorbent assay.

With CR3022 (antibody), the EC50 (read off the curve) – broadly, the concentration giving half of the maximal effect – turned out to be 0.01 µg/mL.
